According to paper PMC7201271:

Experiments:
[1] = target: Neisseria meningitidis quinol-dependent nitric oxide reductase, wild type (Neisseria meningitidis); assay: native gel or EMSA; blue native PAGE of peak 1 and peak 2 fractions after concentration in 100 kDa cutoff devices; 5 and 10 ug loaded
[2] = target: NmqNOR-BRIL (Neisseria meningitidis qNOR with apocytochrome b562 fused to its C-terminus) (Neisseria meningitidis); assay: cryo-EM structure; NmqNOR-BRIL peak 1 at 4 mg/ml, no additional buffer components; C2 symmetry, 3.06 A

stoichiometry N [1] | Substance | stoichiometry N [2]
2 | Neisseria meningitidis quinol-dependent nitric oxide reductase, wild type (enzyme) | –
– | NmqNOR-BRIL (Neisseria meningitidis qNOR with apocytochrome b562 fused to its C-terminus) (enzyme) | 2
